Measurements as given in patent publication US20050118674A1, “Engineering of Controlled Deamidation Rates in Peptides, Proteins, and Similar Structures” (priority 2003, published 2005).

Test: First-order nonenzymatic deamidation of pentapeptides in Tris buffer
Format: physicochemical
Details: pH 7.4, 37.0° C., 0.15 M Tris HCl; Asn pentapeptides
Outline: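 Pentapeptides containing Asn or Gln in varied flanking sequences incubated at 37° C., pH 7.4, 0.15 M Tris buffer; first-order deamidation rates measured. Some Asn values estimated from remaining data; many Gln values derived from surface fitting rather than measured.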

First: GlyTrpAsnAlaGly (GWNAG; printed: GlyTrpAsnAlaGly)
Second: GlyTrpAsnAmCysGly
The “First-Order Deamidation Halftimes of GlyXxxAsnYyyGly” value of the first is lower: 30.7 days for the first, 42.9 days for the second.

Going from “GlyTrpAsnArgGly (GWNRG; printed: GlyTrpAsnArgGly)” to “GlyTrpAsnAspGly (GWNDG; printed: GlyTrpAsnAspGly)”, the “First-Order Deamidation Halftimes of GlyXxxAsnYyyGly” value falls from 73.9 days to 43.6 days.

First: GlyTrpAsnCysGly (GWNCG; printed: GlyTrpAsnCysGly)
Second: GlyTrpAsnGluGly (GWNEG; printed: GlyTrpAsnGluGly)
The “First-Order Deamidation Halftimes of GlyXxxAsnYyyGly” value of the first is higher: 83.1 days for the first, 75.7 days for the second.

First: GlyTrpAsnGlyGly (GWNGG; printed: GlyTrpAsnGlyGly)
Second: GlyTrpAsnHisGly (GWNHG; printed: GlyTrpAsnHisGly)
The “First-Order Deamidation Halftimes of GlyXxxAsnYyyGly” value of the first is lower: 1.75 days for the first, 11.3 days for the second.

Going from “GlyTrpAsnIleGly (GWNIG; printed: GlyTrpAsnIleGly)” to “GlyTrpAsnLeuGly (GWNLG; printed: GlyTrpAsnLeuGly)”, the “First-Order Deamidation Halftimes of GlyXxxAsnYyyGly” value falls from 286 days to 133 days.

First: GlyTrpAsnLysGly (GWNKG; printed: GlyTrpAsnLysGly)
Second: GlyTrpAsnMetGly (GWNMG; printed: GlyTrpAsnMetGly)
The “First-Order Deamidation Halftimes of GlyXxxAsnYyyGly” value of the first is lower: 59.4 days for the first, 64.2 days for the second.

First: GlyTrpAsnPheGly (GWNFG; printed: GlyTrpAsnPheGly)
Second: GlyTrpAsnSerGly (GWNSG; printed: GlyTrpAsnSerGly)
The “First-Order Deamidation Halftimes of GlyXxxAsnYyyGly” value of the first is higher: 71.1 days for the first, 15.5 days for the second.

Compared with “GlyTrpAsnThrGly (GWNTG; printed: GlyTrpAsnThrGly)”, “GlyTrpAsnTrpGly (GWNWG; printed: GlyTrpAsnTrpGly)” is higher in “First-Order Deamidation Halftimes of GlyXxxAsnYyyGly” value: 38.9 days for the first, 135 days for the second.

Compared with “GlyTrpAsnTyrGly (GWNYG; printed: GlyTrpAsnTyrGly)”, “GlyTrpAsnValGly (GWNVG; printed: GlyTrpAsnValGly)” is higher in “First-Order Deamidation Halftimes of GlyXxxAsnYyyGly” value: 92.6 days for the first, 226 days for the second.

Compared with “GlyTyrAsnAlaGly (GYNAG; printed: GlyTyrAsnAlaGly)”, GlyTyrAsnAmCysGly is higher in “First-Order Deamidation Halftimes of GlyXxxAsnYyyGly” value: 24.3 days for the first, 33.3 days for the second.

Going from “GlyTyrAsnArgGly (GYNRG; printed: GlyTyrAsnArgGly)” to “GlyTyrAsnAspGly (GYNDG; printed: GlyTyrAsnAspGly)”, the “First-Order Deamidation Halftimes of GlyXxxAsnYyyGly” value falls from 56.9 days to 28.4 days.

Compared with “GlyTyrAsnCysGly (GYNCG; printed: GlyTyrAsnCysGly)”, “GlyTyrAsnGluGly (GYNEG; printed: GlyTyrAsnGluGly)” is lower in “First-Order Deamidation Halftimes of GlyXxxAsnYyyGly” value: 48.6 days for the first, 41.0 days for the second.

Compared with “GlyTyrAsnGlyGly (GYNGG; printed: GlyTyrAsnGlyGly)”, “GlyTyrAsnHisGly (GYNHG; printed: GlyTyrAsnHisGly)” is higher in “First-Order Deamidation Halftimes of GlyXxxAsnYyyGly” value: 1.49 days for the first, 10.2 days for the second.

Compared with “GlyTyrAsnIleGly (GYNIG; printed: GlyTyrAsnIleGly)”, “GlyTyrAsnLeuGly (GYNLG; printed: GlyTyrAsnLeuGly)” is lower in “First-Order Deamidation Halftimes of GlyXxxAsnYyyGly” value: 306 days for the first, 118 days for the second.

Going from “GlyTyrAsnLysGly (GYNKG; printed: GlyTyrAsnLysGly)” to “GlyTyrAsnMetGly (GYNMG; printed: GlyTyrAsnMetGly)”, the “First-Order Deamidation Halftimes of GlyXxxAsnYyyGly” value rises from 55.1 days to 64.3 days.

Compared with “GlyTyrAsnPheGly (GYNFG; printed: GlyTyrAsnPheGly)”, “GlyTyrAsnProGly (GYNPG; printed: GlyTyrAsnProGly)” is higher in “First-Order Deamidation Halftimes of GlyXxxAsnYyyGly” value: 58.0 days for the first, 9830 days for the second.

Compared with “GlyTyrAsnSerGly (GYNSG; printed: GlyTyrAsnSerGly)”, “GlyTyrAsnThrGly (GYNTG; printed: GlyTyrAsnThrGly)” is higher in “First-Order Deamidation Halftimes of GlyXxxAsnYyyGly” value: 11.9 days for the first, 38.1 days for the second.

First: GlyTyrAsnTrpGly (GYNWG; printed: GlyTyrAsnTrpGly)
Second: GlyTyrAsnTyrGly (GYNYG; printed: GlyTyrAsnTyrGly)
The “First-Order Deamidation Halftimes of GlyXxxAsnYyyGly” value of the first is higher: 120 days for the first, 70.6 days for the second.

For “GlyTyrAsnValGly (GYNVG; printed: GlyTyrAsnValGly)”, the “First-Order Deamidation Halftimes of GlyXxxAsnYyyGly” value was 241 days.

Same assay, conditions: pH 7.4, 37.0 ° C., 0.15 M Tris HCl; Gln pentapeptides; 52 values measured, rest derived from surface fitting

Going from “GlyThrGlnGluGly (GTQEG; printed: GlyThrGlnGluGly)” to “GlyThrGlnGlyGly (GTQGG; printed: GlyThrGlnGlyGly)”, the “First-Order Deamidation Halftimes of GlyXxxGlnYyyGly” value falls from 5900 days to 670 days.

First: GlyThrGlnHisGly (GTQHG; printed: GlyThrGlnHisGly)
Second: GlyThrGlnIleGly (GTQIG; printed: GlyThrGlnIleGly)
The “First-Order Deamidation Halftimes of GlyXxxGlnYyyGly” value of the first is lower: 4500 days for the first, 5300 days for the second.

Compared with “GlyThrGlnLeuGly (GTQLG; printed: GlyThrGlnLeuGly)”, “GlyThrGlnLysGly (GTQKG; printed: GlyThrGlnLysGly)” is lower in “First-Order Deamidation Halftimes of GlyXxxGlnYyyGly” value: 5200 days for the first, 4800 days for the second.

Going from “GlyThrGlnMetGly (GTQMG; printed: GlyThrGlnMetGly)” to “GlyThrGlnPheGly (GTQFG; printed: GlyThrGlnPheGly)”, the “First-Order Deamidation Halftimes of GlyXxxGlnYyyGly” value rises from 3700 days to 6800 days.

Going from “GlyThrGlnProGly (GTQPG; printed: GlyThrGlnProGly)” to “GlyThrGlnSerGly (GTQSG; printed: GlyThrGlnSerGly)”, the “First-Order Deamidation Halftimes of GlyXxxGlnYyyGly” value falls from 7500 days to 4200 days.

Compared with “GlyThrGlnThrGly (GTQTG; printed: GlyThrGlnThrGly)”, “GlyThrGlnTrpGly (GTQWG; printed: GlyThrGlnTrpGly)” is higher in “First-Order Deamidation Halftimes of GlyXxxGlnYyyGly” value: 4000 days for the first, 9700 days for the second.

Going from “GlyThrGlnTyrGly (GTQYG; printed: GlyThrGlnTyrGly)” to “GlyThrGlnValGly (GTQVG; printed: GlyThrGlnValGly)”, the “First-Order Deamidation Halftimes of GlyXxxGlnYyyGly” value falls from 8400 days to 5100 days.

First: GlyTrpGlnAlaGly (GWQAG; printed: GlyTrpGlnAlaGly)
Second: GlyTrpGlnArgGly (GWQRG; printed: GlyTrpGlnArgGly)
The “First-Order Deamidation Halftimes of GlyXxxGlnYyyGly” value of the first is lower: 7400 days for the first, 8300 days for the second.

Going from “GlyTrpGlnAspGly (GWQDG; printed: GlyTrpGlnAspGly)” to “GlyTrpGlnCysGly (GWQCG; printed: GlyTrpGlnCysGly)”, the “First-Order Deamidation Halftimes of GlyXxxGlnYyyGly” value falls from 8800 days to 2300 days.

Compared with “GlyTrpGlnGluGly (GWQEG; printed: GlyTrpGlnGluGly)”, “GlyTrpGlnGlyGly (GWQGG; printed: GlyTrpGlnGlyGly)” is lower in “First-Order Deamidation Halftimes of GlyXxxGlnYyyGly” value: 8500 days for the first, 850 days for the second.

Compared with “GlyTrpGlnHisGly (GWQHG; printed: GlyTrpGlnHisGly)”, “GlyTrpGlnIleGly (GWQIG; printed: GlyTrpGlnIleGly)” is higher in “First-Order Deamidation Halftimes of GlyXxxGlnYyyGly” value: 7500 days for the first, 8000 days for the second.

Going from “GlyTrpGlnLeuGly (GWQLG; printed: GlyTrpGlnLeuGly)” to “GlyTrpGlnLysGly (GWQKG; printed: GlyTrpGlnLysGly)”, the “First-Order Deamidation Halftimes of GlyXxxGlnYyyGly” value falls from 7900 days to 7600 days.

Compared with “GlyTrpGlnMetGly (GWQMG; printed: GlyTrpGlnMetGly)”, “GlyTrpGlnPheGly (GWQFG; printed: GlyTrpGlnPheGly)” is higher in “First-Order Deamidation Halftimes of GlyXxxGlnYyyGly” value: 5300 days for the first, 8600 days for the second.

First: GlyTrpGlnProGly (GWQPG; printed: GlyTrpGlnProGly)
Second: GlyTrpGlnSerGly (GWQSG; printed: GlyTrpGlnSerGly)
The “First-Order Deamidation Halftimes of GlyXxxGlnYyyGly” value of the first is higher: 11000 days for the first, 6500 days for the second.

Compared with “GlyTrpGlnThrGly (GWQTG; printed: GlyTrpGlnThrGly)”, “GlyTrpGlnTrpGly (GWQWG; printed: GlyTrpGlnTrpGly)” is higher in “First-Order Deamidation Halftimes of GlyXxxGlnYyyGly” value: 5600 days for the first, 19000 days for the second.

Going from “GlyTrpGlnTyrGly (GWQYG; printed: GlyTrpGlnTyrGly)” to “GlyTrpGlnValGly (GWQVG; printed: GlyTrpGlnValGly)”, the “First-Order Deamidation Halftimes of GlyXxxGlnYyyGly” value falls from 14000 days to 8200 days.

First: GlyTyrGlnAlaGly (GYQAG; printed: GlyTyrGlnAlaGly)
Second: GlyTyrGlnArgGly (GYQRG; printed: GlyTyrGlnArgGly)
The “First-Order Deamidation Halftimes of GlyXxxGlnYyyGly” value of the first is lower: 7300 days for the first, 8100 days for the second.

Going from “GlyTyrGlnAspGly (GYQDG; printed: GlyTyrGlnAspGly)” to “GlyTyrGlnCysGly (GYQCG; printed: GlyTyrGlnCysGly)”, the “First-Order Deamidation Halftimes of GlyXxxGlnYyyGly” value falls from 8600 days to 2200 days.

First: GlyTyrGlnGluGly (GYQEG; printed: GlyTyrGlnGluGly)
Second: GlyTyrGlnGlyGly (GYQGG; printed: GlyTyrGlnGlyGly)
The “First-Order Deamidation Halftimes of GlyXxxGlnYyyGly” value of the first is higher: 8300 days for the first, 850 days for the second.

Going from “GlyTyrGlnHisGly (GYQHG; printed: GlyTyrGlnHisGly)” to “GlyTyrGlnIleGly (GYQIG; printed: GlyTyrGlnIleGly)”, the “First-Order Deamidation Halftimes of GlyXxxGlnYyyGly” value rises from 7400 days to 7900 days.

Going from “GlyTyrGlnLeuGly (GYQLG; printed: GlyTyrGlnLeuGly)” to “GlyTyrGlnLysGly (GYQKG; printed: GlyTyrGlnLysGly)”, the “First-Order Deamidation Halftimes of GlyXxxGlnYyyGly” value falls from 7800 days to 7500 days.

With “GlyTyrGlnMetGly (GYQMG; printed: GlyTyrGlnMetGly)” the “First-Order Deamidation Halftimes of GlyXxxGlnYyyGly” value was 5300 days.
